Here are results for one molecule from paper PMC10605006, “RNA structure and multiple weak interactions balance the interplay between RNA binding and phase separation of SARS-CoV-2 nucleocapsid”.

The target of data set [1] is FL-N (nucleocapsid, full length) (SARS-CoV-2, UniProt P0DTC9 1-419). Briefly: fluorescence anisotropy; fit with locked stoichiometry n=4 RNA:FL-N; authors call it an estimate; Anisotropy: 50 mM Na phosphate pH 6.5, 150 mM NaCl, 1 mM NaN3, 50 nM RNA; EMSA: 20 mM Tris pH 7.5, 150 mM NaCl, 1 mM DTT, room temp, 25 uM RNA; NTD NMR: 20 mM Na phosphate pH 6.5, 20 mM NaCl, 25 C; CTD NMR: 20 mM Na phosphate pH 6, 200 mM NaCl. As to conditions: protein: recombinant; tags: His-tag (TALON, imidazole eluted); chain copies: 2; label: 5',6-carboxyfluorescein (6-FAM) for anisotropy; unlabeled for NMR; single strand, no self-pairing.

The target of a further data set is NTD (SARS-CoV-2, UniProt P0DTC9 47-174). Description: fluorescence anisotropy; 1:1 fit; Anisotropy: 50 mM Na phosphate pH 6.5, 150 mM NaCl, 1 mM NaN3, 50 nM RNA; EMSA: 20 mM Tris pH 7.5, 150 mM NaCl, 1 mM DTT, room temp, 25 uM RNA; NTD NMR: 20 mM Na phosphate pH 6.5, 20 mM NaCl, 25 C; CTD NMR: 20 mM Na phosphate pH 6, 200 mM NaCl. As to conditions: protein: recombinant; tags: none (tag removed by bdSENP1); label: 5',6-carboxyfluorescein (6-FAM) for anisotropy; unlabeled for NMR; single strand, no self-pairing. On the technique in general: Polarisation of emitted light reports the rotation of a fluorescent probe.

As a reminder, the Kd is the free concentration of one partner at which half of the binding sites on the other are occupied at equilibrium, for simple one-to-one binding. For GGCACAUGGACGUC (ssRNA) [ss-14mer], the dissociation constant Kd was around 0.08 µM in data set [1] and 22 µM with NTD.
